The values that follow come from PMC10706272, “Improving the Thermostability of Thermomyces lanuginosus Lipase by Restricting the Flexibility of N-Terminus and C-Terminus Simultaneously via the 25-Loop Substitutions” (International Journal of Molecular Sciences, 2023).

The subject of the data set is CCCCCCCCCCCCCCCC(=O)Oc1ccc([N+](=O)[O-])cc1. The experiment in a line: initial-rate hydrolysis of pNPP, p-nitrophenol release, Michaelis-Menten fit. The data set is classed as biochemical, Thermomyces lanuginosus. Conditions: 37 °C, pH 9.0, Tris-HCl 100 mM, apparent Km, pNPP 0.25-10 mM. The source says:
initial-rate hydrolysis of pNPP, p-nitrophenol release, Michaelis-Menten fit on TLL (Thermomyces lanuginosus lipase)

Regarding “TLL (Thermomyces lanuginosus lipase) (Thermomyces lanuginosus; D49R)”, the Km is 360 ± 10 µM, the Vmax was 828 µmol/min/mg, the turnover number (kcat) worked out at 1900 ± 21 s⁻¹ and the kcat/Km stood at 5.24e+06 ± 118000 M⁻¹ s⁻¹.
The corresponding values for “TLL (Thermomyces lanuginosus lipase) (Thermomyces lanuginosus; K46S)” are 310 ± 20 µM, 681 µmol/min/mg, 1380 ± 22 s⁻¹ and 4.48e+06 ± 157000 M⁻¹ s⁻¹.
For “TLL (Thermomyces lanuginosus lipase) (Thermomyces lanuginosus; P51S)”, the Michaelis constant (Km) is 290 ± 30 µM, the Vmax was 668 µmol/min/mg, the turnover number (kcat) is 1354 ± 9 s⁻¹ and the specificity constant (kcat/Km) worked out at 4.747e+06 ± 28000 M⁻¹ s⁻¹.
“TLL (Thermomyces lanuginosus lipase) (Thermomyces lanuginosus; A52P)”: the Km was determined as 240 ± 20 µM, the Vmax came to 503 µmol/min/mg, the kcat stood at 1036 ± 4 s⁻¹ and the kcat/Km was found to be 4.383e+06 ± 42000 M⁻¹ s⁻¹.
Take “TLL (Thermomyces lanuginosus lipase) (Thermomyces lanuginosus; D49N)”: the Km is 220 ± 20 µM, the Vmax is 396 µmol/min/mg, the kcat is 777 ± 5 s⁻¹ and the kcat/Km stood at 3.503e+06 ± 31000 M⁻¹ s⁻¹.

By Km is commonly meant the concentration of substrate that gives half-maximal velocity. What is called Vmax is the rate approached at saturating substrate. Usually kcat stands for the maximal rate divided by the concentration of active sites. What is called kcat/Km is the second-order rate constant that governs catalysis at low substrate concentration.
